Reference: US20030186281A1, “Modified tetracycline repressor protein compositions and methods of use” (priority 2001, published 2003)
Numbering of substitutions follows the chain as printed. Names and notes keep the numbering of the source.

B1: TetRrev96/99-15: revTetR(BD) G96P V99P (protein)
chain: MSRLDKSKVINSALELLNEVGIEGLTTRKLAQKLGVEQPTLYWHVKNKRALLDALAVEILARHHDYSLPAAGESWQSFLRNNAMSFRRALLRYRDPAKPHLGTRPDEKQYDTVETQLRFMTENGFSLRDGLYAISAVSHFTLGAVLEQQEHTAALTDRPAAPDENLPPLLREALQIMDSDDGEQAFLHGLESLIRGFEVQLTALLQIV
modifications: Modified tetracycline repressor
notes: revTetR(BD) G96P V99P
B2: TetRrevAtc4-61: revTetR(BD) L51L A56V I59H R62L (protein)
chain: B1 chain with A56V, I59H, R62L, P96G, P99V
modifications: Modified tetracycline repressor
notes: revTetR(BD) L51L A56V I59H R62L
B3: TetRrevAtc4-7: revTetR(BD) I59R L55L A61E H64N (protein)
chain: B1 chain with I59R, A61E, H64N, P96G, P99V
modifications: Modified tetracycline repressor
notes: revTetR(BD) I59R L55L A61E H64N
B4: TetRrevAtc4-21: revTetR(BD) K6K D53F L55L V57L I59S A61S (protein)
chain: B1 chain with D53F, V57L, I59S, A61S, P96G, P99V
modifications: Modified tetracycline repressor
notes: revTetR(BD) K6K D53F L55L V57L I59S A61S
B5: TetRrevAtc4-22: revTetR(BD) R49H A56P V57L L60M (protein)
chain: B1 chain with R49H, A56P, V57L, L60M, P96G, P99V
modifications: Modified tetracycline repressor
notes: revTetR(BD) R49H A56P V57L L60M
B6: TetRrevAtc4-53: revTetR(BD) D53F L55M I59S H63Q (protein)
chain: B1 chain with D53F, L55M, I59S, H63Q, P96G, P99V
modifications: Modified tetracycline repressor
notes: revTetR(BD) D53F L55M I59S H63Q
B7: TetRrev96P: revTetR(BD) G96P (protein)
chain: B1 chain with P99V
modifications: Modified tetracycline repressor
notes: revTetR(BD) G96P
B8: TetRrev96/99-20: revTetR(BD) G96S V99K (protein)
chain: B1 chain with P96S, P99K
modifications: Modified tetracycline repressor
notes: revTetR(BD) G96S V99K
B9: TetRrev96/99-17: revTetR(BD) G96T V99K (protein)
chain: B1 chain with P96T, P99K
modifications: Modified tetracycline repressor
notes: revTetR(BD) G96T V99K
B10: TetRrevAtc4-52: revTetR(BD) D53F A54T L55M I59S H63Q (protein)
chain: B1 chain with D53F, A54T, L55M, I59S, H63Q, P96G, P99V
modifications: Modified tetracycline repressor
notes: revTetR(BD) D53F A54T L55M I59S H63Q
B11: TetRrev96/99-18: revTetR(BD) G96T V99P (protein)
chain: B1 chain with P96T
modifications: Modified tetracycline repressor
notes: revTetR(BD) G96T V99P
B12: TetRrevAtc4-5: revTetR(BD) I59F A61S H64Q A97T (protein)
chain: B1 chain with I59F, A61S, H64Q, P96G, A97T, P99V
modifications: Modified tetracycline repressor
notes: revTetR(BD) I59F A61S H64Q A97T
B13: TetRrev96/99-19: revTetR(BD) G96R V99S (protein)
chain: B1 chain with P96R, P99S
modifications: Modified tetracycline repressor
notes: revTetR(BD) G96R V99S
B14: TetRrevAtc4-24: revTetR(BD) A56P V57A E58Q H63Q (protein)
chain: B1 chain with A56P, V57A, E58Q, H63Q, P96G, P99V
modifications: Modified tetracycline repressor
notes: revTetR(BD) A56P V57A E58Q H63Q
B15: TetRrevAtc4-31: revTetR(BD) A50S D53Y A56G V57I H63Q (protein)
chain: B1 chain with A50S, D53Y, A54G, A56G, V57I, H63Q, P96G, P99V
modifications: Modified tetracycline repressor
notes: revTetR(BD) A50S D53Y A56G V57I H63Q
B16: TetRrevAtc4-48: revTetR(BD) D53N A54S L55L A56P V57V A61A R62L (protein)
chain: B1 chain with D53N, A54S, A56P, V57P, R62L, P96G, P99V
modifications: Modified tetracycline repressor
notes: revTetR(BD) D53N A54S L55L A56P V57V A61A R62L
B17: TetRrevAtc4-47: revTetR(BD) L51L E58A I59N H63Y (protein)
chain: B1 chain with E58A, I59N, A61E, H63Y, H64N, P96G, P99V
modifications: Modified tetracycline repressor
notes: revTetR(BD) L51L E58A I59N H63Y
B18: TetRrevAtc4-40: revTetR(BD) A56P L60L A61G R62R (protein)
chain: B1 chain with A56P, A61G, P96G, P99V
modifications: Modified tetracycline repressor
notes: revTetR(BD) A56P L60L A61G R62R
B19: TetRrevAtc4-20: revTetR(BD) V57V E58K L60V A61T R62G (protein)
chain: B1 chain with E58K, L60V, A61T, R62G, P96G, P99V
modifications: Modified tetracycline repressor
notes: revTetR(BD) V57V E58K L60V A61T R62G
B20: TetRrevAtc4-6: revTetR(BD) D53Y L55L A56P R62L (protein)
chain: B1 chain with D53Y, A56P, R62L, P96G, P99V
modifications: Modified tetracycline repressor
notes: revTetR(BD) D53Y L55L A56P R62L
B21: TetRrevAtc4-43: revTetR(BD) L52V A56V V57L I59T A61S (protein)
chain: B1 chain with L52V, A56V, V57L, I59T, A61S, P96G, P99V
modifications: Modified tetracycline repressor
notes: revTetR(BD) L52V A56V V57L I59T A61S
B22: TetRrevAtc4-67: revTetR(BD) K48K D53Y A56G E58G (protein)
chain: B1 chain with D53Y, A56G, E58G, P96G, P99V
modifications: Modified tetracycline repressor
notes: revTetR(BD) K48K D53Y A56G E58G
B23: TetRrev96/99-16: revTetR(BD) G96P V99Y (protein)
chain: B1 chain with P99Y
modifications: Modified tetracycline repressor
notes: revTetR(BD) G96P V99Y
B24: TetRrevAtc4-23: revTetR(BD) A50D L51V L52Q A54A L55L A61S (protein)
chain: B1 chain with A50D, L51V, L52Q, A61S, P96G, P99V
modifications: Modified tetracycline repressor
notes: revTetR(BD) A50D L51V L52Q A54A L55L A61S
B25: TetRrevAtc4-2: revTetR(BD) R49G L55L V57V E58N R62L H63Q (protein)
chain: B1 chain with R49G, E58N, R62L, H63Q, P96G, P99V
modifications: Modified tetracycline repressor
notes: revTetR(BD) R49G L55L V57V E58N R62L H63Q
B26: TetRrevAtc4-25: revTetR(BD) K48K V57L E58V I59T L60F R62S (protein)
chain: B1 chain with V57L, E58V, I59T, L60F, R62S, P96G, P99V
modifications: Modified tetracycline repressor
notes: revTetR(BD) K48K V57L E58V I59T L60F R62S
B27: TetRrevAtc4-28: revTetR(BD) V57V E58K L60V R62G (protein)
chain: B1 chain with E58K, L60V, R62G, P96G, P99V
modifications: Modified tetracycline repressor
notes: revTetR(BD) V57V E58K L60V R62G
B28: TetRrevAtc4-4: revTetR(BD) I59S R62S (protein)
chain: B1 chain with I59S, R62S, P96G, P99V
modifications: Modified tetracycline repressor
notes: revTetR(BD) I59S R62S

Test system: tet operator sequence
Assay: β-galactosidase activity of a tetracycline-regulated promoter in transformed E. coli with revTetR, in the presence and absence of anhydrotetracycline (atc)
Type: cell-based, Escherichia coli
Conditions: RevTetR isolate cultured in the absence of anhydrotetracycline (ATC)
Outline: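 TetR(BD) chimera mutants (TetR(B) residues 1–50, TetR(D) 51–208) expressed in E. coli regulating a tet operator-controlled lacZ. β-Galactosidase measured in Miller units at 28 °C and 37 °C with and without anhydrotetracycline; reported as percent of maximal expression without Tet repressor.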

Point of comparison: B17, “β-Galactosidase Activity, Cultured Without ATC” value 83.987. Against it:
- B1 — higher, 110.413
- B2 — higher, 88.785
- B3 — higher, 84.416
- B4 — higher, 104.757
- B5 — lower, 80.2859
- B6 — higher, 87.055
- B7 — lower, 24.1109
- B8 — lower, 81.8583
- B9 — higher, 92.9198
- B10 — higher, 105.367
- B11 — higher, 85.7142
- B12 — higher, 98.272
- B13 — higher, 95.188
- B14 — lower, 61.649
- B15 — lower, 65.039
- B16 — higher, 110.179
- B18 — lower, 56.743
- B19 — lower, 78.478
- B20 — higher, 108.478
- B21 — higher, 99.61
- B22 — lower, 61.815
- B23 — higher, 93.7512
- B24 — higher, 105.95
- B25 — lower, 3.143
- B26 — higher, 98.629
- B27 — higher, 85.141
- B28 — lower, 70.5665

Same assay, conditions: RevTetR isolate cultured in the presence of anhydrotetracycline (ATC)

Point of comparison: B5, “β-Galactosidase Activity, Cultured With ATC” value 3.7584. Against it:
- B1 — higher, 14.218
- B2 — higher, 23.831
- B3 — higher, 27.649
- B4 — higher, 16.831
- B6 — higher, 6.945
- B7 — higher, 4.1882
- B8 — lower, 3.0074
- B9 — higher, 8.4558
- B10 — higher, 5.575
- B11 — higher, 7.5138
- B12 — higher, 12.552
- B13 — higher, 7.4009
- B14 — higher, 13.63
- B15 — lower, 2.181
- B16 — higher, 16.146
- B17 — higher, 13.969
- B18 — higher, 14.428
- B19 — higher, 8.048
- B20 — higher, 23.873
- B21 — higher, 13.878
- B22 — higher, 12.616
- B23 — higher, 9.8301
- B24 — higher, 21.606
- B25 — lower, 0.9516
- B26 — higher, 12.116
- B27 — higher, 4.217
- B28 — lower, 2.5363
